Experimental data: the supplement of paper PMC7125110
± gives the standard error. For part of these data: This sample holds only a part of the variants without activity.

B1: glmS ribozyme (parent)
chain: AUAAAAGCGCCAGAACUACAGAAAUGUAGUUGACGAGGAGGAGGUUUAUCGAAUUUUCGGCGGAUGCCUCCAAA

Columns and labels:
Details in all cases: with glucosamine-6-phosphate
glucosamine-6-phosphate [1] = variants of: B1; assay: kcat; higher = faster cleavage; RNA array
Summary of the method: (§1)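 Tiles bearing barcoded ribozyme variants, transcribed in situ by E. coli RNA polymerase on sequenced MiSeq chips, were imaged over ~14 h at 37 °C using a hybridised Cy3 probe. Glucosamine-6-phosphate was supplied at 40 μM to 10 mM in HEPES/KCl/Mg(OAc)2 buffer. kobs came from one- or two-exponential decay fits to normalised per-tile medians, and weighted Michaelis–Menten fits then provided kcat and KM.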

glucosamine-6-phosphate [2] = variants of: B1; assay: self-cleavage kobs at 2500 uM GlcN6P; higher = faster cleavage; RNA array
Summary of the method: as §1

glucosamine-6-phosphate [3] = variants of: B1; assay: KM; higher = weaker cofactor use; RNA array
Summary of the method: as §1

glucosamine-6-phosphate [4] = variants of: B1; assay: self-cleavage kobs at 40 uM GlcN6P; higher = faster cleavage; RNA array
Summary of the method: as §1

glucosamine-6-phosphate [5] = variants of: B1; assay: self-cleavage kobs at 160 uM GlcN6P; higher = faster cleavage; RNA array
Summary of the method: as §1

glucosamine-6-phosphate [6] = variants of: B1; assay: self-cleavage kobs at 640 uM GlcN6P; higher = faster cleavage; RNA array
Summary of the method: as §1

glucosamine-6-phosphate [7] = variants of: B1; assay: self-cleavage kobs at 10000 uM GlcN6P; higher = faster cleavage; RNA array
Summary of the method: as §1

Variant	kcat (glucosamine-6-phosphate [1])	self-cleavage kobs at 2500 uM GlcN6P (glucosamine-6-phosphate [2])	KM (glucosamine-6-phosphate [3])	self-cleavage kobs at 40 uM GlcN6P (glucosamine-6-phosphate [4])	self-cleavage kobs at 160 uM GlcN6P (glucosamine-6-phosphate [5])	self-cleavage kobs at 640 uM GlcN6P (glucosamine-6-phosphate [6])	self-cleavage kobs at 10000 uM GlcN6P (glucosamine-6-phosphate [7])
G7C A36G G37U A52U U57C G63U	< 1e-05 s⁻¹	< 1e-05 s⁻¹	–	–	–	–	–
A12U G59U	1.03e-05 ± 1e-06 s⁻¹	–	–	–	–	–	–
U65G C71U	0.00415 ± 0.00046 s⁻¹	0.00232 ± 0.00055 s⁻¹	2.96 ± 0.43 mM	5.93e-05 ± 7e-06 s⁻¹	0.000189 ± 3.4e-05 s⁻¹	0.000688 ± 0.00013 s⁻¹	0.00316 ± 0.00037 s⁻¹
C11U A12G	0.00116 ± 0.00011 s⁻¹	0.00079 ± 8.1e-05 s⁻¹	1.76 ± 0.31 mM	–	9.07e-05 ± 1.3e-05 s⁻¹	0.000315 ± 4.3e-05 s⁻¹	0.000933 ± 8.4e-05 s⁻¹
G13A C70A	2.43e-05 ± 6.3e-06 s⁻¹	–	–	–	–	–	–
U45G U46A	0.00906 ± 0.0029 s⁻¹	–	3.87 ± 1.7 mM	0.000106 ± 1.7e-05 s⁻¹	0.000641 ± 0.00023 s⁻¹	0.000705 ± 0.00032 s⁻¹	0.00686 ± 0.0011 s⁻¹
G32A U54G	0.00257 ± 0.00027 s⁻¹	0.00121 ± 0.00012 s⁻¹	2.6 ± 0.41 mM	3.07e-05 ± 7.9e-06 s⁻¹	0.000162 ± 2.6e-05 s⁻¹	0.000536 ± 5.3e-05 s⁻¹	0.00207 ± 0.00024 s⁻¹
A53U U54G	0.0452 ± 0.016 s⁻¹	0.0161 ± 0.0061 s⁻¹	3.78 ± 1.6 mM	0.000521 ± 4.8e-05 s⁻¹	–	0.00468 ± 0.001 s⁻¹	0.0354 ± 0.0056 s⁻¹
A36C	< 1e-05 s⁻¹	–	–	–	< 1e-05 s⁻¹	–	–
G40U U56G	0.00147 ± 0.00055 s⁻¹	0.00136 ± 0.00015 s⁻¹	–	4.98e-05 ± 1.7e-05 s⁻¹	0.000107 ± 1.6e-05 s⁻¹	0.000431 ± 6e-05 s⁻¹	0.000885 ± 0.00019 s⁻¹
A14G A33G G37U	< 1e-05 s⁻¹	–	–	< 1e-05 s⁻¹	< 1e-05 s⁻¹	–	–
A14C	0.0129 ± 0.0023 s⁻¹	0.00541 ± 0.00017 s⁻¹	3.46 ± 0.74 mM	0.000163 ± 2.7e-06 s⁻¹	0.000466 ± 1.5e-05 s⁻¹	0.00185 ± 6.7e-05 s⁻¹	0.00971 ± 0.00024 s⁻¹
A6G G32A	< 1e-05 s⁻¹	–	–	< 1e-05 s⁻¹	–	–	–
A15G C58A	0.000835 ± 8.2e-05 s⁻¹	0.000303 ± 4e-05 s⁻¹	5.24 ± 0.79 mM	–	2.68e-05 ± 1.2e-05 s⁻¹	8.63e-05 ± 1e-05 s⁻¹	0.000537 ± 5.2e-05 s⁻¹
A33U U45A	0.000201 ± 3.4e-05 s⁻¹	7.97e-05 ± 1.2e-05 s⁻¹	4.4 ± 1.7 mM	< 1e-05 s⁻¹	–	–	0.000137 ± 1.5e-05 s⁻¹
A42U C70U	0.000154 ± 2e-05 s⁻¹	0.000112 ± 1.2e-05 s⁻¹	1.64 ± 0.56 mM	–	–	3.64e-05 ± 7.2e-06 s⁻¹	0.000126 ± 1.2e-05 s⁻¹
